Experimental data published in patent publication US20230304010A1, “COMPOSITIONS AND METHODS FOR TREATING VIRAL INFECTIONS” (priority 2020, published 2023).

Key:
[1] = biological target: ACE2, Q9BYF1; test: inhibitor screening kit; ACE2:SARS-CoV-2 Spike (Example 4 assay)
[2] = biological target: ACE2, Q9BYF1; test: inhibitor screening kit; SARS-CoV-2 Spike:ACE2 (Example 3 assay)
[3] = biological target: SARS-CoV-2 Spike-Fc, Beta (B1.351/South Africa) variant (SARS-CoV-2), P0DTC2
[4] = biological target: SARS-CoV-2 Spike-Fc, Epsilon (B1429) variant (SARS-CoV-2), P0DTC2
[5] = biological target: SARS-CoV-2 Spike-Fc, Alpha (B1.1.7/United Kingdom) variant (SARS-CoV-2), P0DTC2
[6] = biological target: SARS-CoV-2 Spike-Fc, Delta (B1 617 2/India) variant (SARS-CoV-2), P0DTC2
[7] = biological target: SARS-CoV-2 Spike-Fc, Gamma (P1/Brazil) variant (SARS-CoV-2), P0DTC2

Chain of ACE2, Q9BYF1 (Q9BYF1 18-740 limits assumed): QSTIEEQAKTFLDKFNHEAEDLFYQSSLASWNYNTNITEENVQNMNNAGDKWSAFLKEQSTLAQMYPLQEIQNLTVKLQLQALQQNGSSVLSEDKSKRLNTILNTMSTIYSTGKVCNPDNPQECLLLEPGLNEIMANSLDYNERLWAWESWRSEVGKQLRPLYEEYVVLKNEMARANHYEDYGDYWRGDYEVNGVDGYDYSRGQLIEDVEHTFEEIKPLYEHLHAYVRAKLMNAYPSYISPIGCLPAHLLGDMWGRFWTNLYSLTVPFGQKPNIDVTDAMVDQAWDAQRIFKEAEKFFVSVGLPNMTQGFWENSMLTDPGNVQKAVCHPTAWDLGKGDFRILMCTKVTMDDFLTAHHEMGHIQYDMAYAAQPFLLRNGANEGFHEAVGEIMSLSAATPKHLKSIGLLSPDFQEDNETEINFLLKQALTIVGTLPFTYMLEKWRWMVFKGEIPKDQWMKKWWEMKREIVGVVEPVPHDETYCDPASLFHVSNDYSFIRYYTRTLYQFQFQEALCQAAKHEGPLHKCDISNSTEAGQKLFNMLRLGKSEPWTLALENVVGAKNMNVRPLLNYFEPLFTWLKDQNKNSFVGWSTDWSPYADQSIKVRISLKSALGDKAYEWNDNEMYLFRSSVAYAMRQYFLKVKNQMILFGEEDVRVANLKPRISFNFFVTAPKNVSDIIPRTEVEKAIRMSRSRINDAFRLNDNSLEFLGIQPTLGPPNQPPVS

| Binder | IC50 [1] [nM] | IC50 [2] [nM] | IC50 [3] [nM] | IC50 [4] [nM] | IC50 [5] [nM] | IC50 [6] [nM] | IC50 [7] [nM] |
| --- | --- | --- | --- | --- | --- | --- | --- |
| GNYNYLYRLLWRALWRLWRSLWRLLWK (modifications not checked) [seq14 (LNCOV-12)] | > 10000 | > 10000 |  |  |  |  |  |
| KTFLDKFNHEAEDLFPGPKWSAFLKEQSTLAQMYG (modifications not checked) [Seq28 (LNCOV-20)] |  |  | 31.5 | 28.8 | 24.6 | 29.2 | 41.7 |
| KVGGNYNYKLWRALWRLWRSLWRLLWK (modifications not checked) [Seq13 (LNCOV-11)] | > 10000 | > 10000 |  |  |  |  |  |
| VEGFNCYFLWRALWRLWRSLWRLLWK (modifications not checked) [Seq18 (LNCOV-16)] | > 10000 | > 10000 |  |  |  |  |  |
| EQAKTFLDKFNHEAEDLFLWRALWRLWRSLWRLLWK (modifications not checked) [Seq33 (LNCOV-18)] |  |  | 28.8 | 31.4 | 17.8 | 25.7 | 20.2 |
